Values of other authors in article PMC5095918.

Biological target: FANCL RING (Homo sapiens) (UniProt Q9NW38)
UniProt Q9NW38, sequence (Q9NW38 304-366): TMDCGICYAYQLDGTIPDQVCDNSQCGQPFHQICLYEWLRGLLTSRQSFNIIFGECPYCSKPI

Kd: 450 nM
Substance: UBE2T (from UniProt Q9NPD8)
